Laboratory results published in publication PMC5670239, “Structural basis for mutually exclusive co-transcriptional nuclear cap-binding complexes with either NELF-E or ARS2” (Nature Communications, 2017).
Values belong to the substance of their own block, whether it stands above or below them. Ends that are not written are not given here.

Legend:
m^7GTP-CBC [1] = biological target: T1, m^7GTP-CBC (Homo sapiens, UniProt P52298+Q09161); test: ITC, binding to CBC in the presence of the cap analogue m^7GTP; settings: for Kd: ITC, 25 °C, 20 mM HEPES, 120 mM NaCl, 2 mM TCEP, pH 7.8, CBC bound to m^7GTP, mean ± SD of at least two independent experiments, SD
T1 construct: 6-histidine tag (pETM30 vector) (N, cleaved yes); made in house; host or cells: CBP20 in E. coli Rosetta 2; CBP80ΔNLS in High Five insect cells; heterodimer reconstituted on Ni-sepharose
T1 sequence (Q09161 20-790): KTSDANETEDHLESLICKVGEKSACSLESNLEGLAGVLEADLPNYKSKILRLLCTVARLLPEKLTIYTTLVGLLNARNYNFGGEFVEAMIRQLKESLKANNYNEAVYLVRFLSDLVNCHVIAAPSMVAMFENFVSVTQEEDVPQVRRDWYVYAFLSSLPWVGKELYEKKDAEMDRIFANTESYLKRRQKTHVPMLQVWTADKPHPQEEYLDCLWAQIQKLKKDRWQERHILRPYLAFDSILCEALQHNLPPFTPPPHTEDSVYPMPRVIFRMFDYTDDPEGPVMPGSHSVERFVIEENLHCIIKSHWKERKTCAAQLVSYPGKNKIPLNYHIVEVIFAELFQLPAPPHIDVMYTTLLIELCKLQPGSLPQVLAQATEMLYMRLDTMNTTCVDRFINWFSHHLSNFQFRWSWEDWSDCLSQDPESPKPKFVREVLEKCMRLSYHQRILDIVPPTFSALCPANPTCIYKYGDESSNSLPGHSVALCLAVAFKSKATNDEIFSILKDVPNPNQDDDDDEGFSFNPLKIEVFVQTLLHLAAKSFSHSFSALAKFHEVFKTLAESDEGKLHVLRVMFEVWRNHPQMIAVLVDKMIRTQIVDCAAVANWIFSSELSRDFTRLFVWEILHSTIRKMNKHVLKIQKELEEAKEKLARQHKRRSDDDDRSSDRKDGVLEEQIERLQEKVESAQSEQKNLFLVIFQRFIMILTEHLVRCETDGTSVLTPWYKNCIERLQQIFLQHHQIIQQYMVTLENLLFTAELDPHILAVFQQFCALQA
T1 sequence (P52298 1-156): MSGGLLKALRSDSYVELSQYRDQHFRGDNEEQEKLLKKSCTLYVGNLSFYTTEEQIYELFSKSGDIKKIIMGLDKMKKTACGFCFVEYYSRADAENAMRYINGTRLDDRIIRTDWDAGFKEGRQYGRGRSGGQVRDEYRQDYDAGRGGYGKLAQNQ
Source text: (§1) hARS2 isoform-4 (871 residues, UniProt:Q9BXP5-4, also known as isoform-e, NP_001122326) constructs (residues 147–871, 147–845, 763–871, 763–845, 827–871) hNELF-E (NM_002904.5) (244–380, 244–360) and hPHAX (NM_032177.3) (1–394, 103–294, 103–308, 103–327) were cloned into pETM11 (EMBL). Full-length hNELF-E (1–380) was cloned into pFASTBac and CBP20 into pETM30. Primers used are given in Supplementary Table 2. All constructs were expressed in E. coli Rosetta 2 (Novagen), except full-length NELF-E and CBP80ΔNLS (CBP80 with residues 1–19 deleted[2]), which were expressed in High Five insect cells (Life Technology). Cells were harvested and lysed by sonication in lysis buffer containing 50 mM HEPES, pH 7.8, 300 mM NaCl, 10% (v/v) glycerol, 5 mM β-mercaptoethanol. Lysates were clarified by centrifugation and applied on an equilibrated Ni-sepharose column (GE Healthcare), washed with 20 mM imidazole in lysis buffer, and eluted with 300 mM imidazole in lysis buffer. While dialysing into 20 mM HEPES, pH 7.8, 120 mM NaCl, 10% (v/v) glycerol, 5 mM β-mercaptoethanol, the N-terminal 6-histidine-tag was cleaved with His-tagged Tobacco Etch Virus (TEV) protease overnight in a ratio 1:100 mg TEV per mg protein. The cleaved protein was further purified first on Ni-sepharose to remove TEV and then using an anion exchange column (HiTrap Q, GE Healthcare) followed if necessary by a Heparin column (GE Healthcare). In both cases a NaCl gradient from 50 to 800 mM in 20 mM HEPES 7.8, 0.5 mM tris(2-carboxyethyl)phosphine was used. To reconstitute the CBC heterodimer, cleared His-tagged CBP20 lysate was first immobilised on a Ni-sepharose column. After washing the column with lysis buffer, the cleared CBP80 lysate was applied to the column and further purification steps performed as described above. To remove the access of CBP20 the flow through of the Ni-column after TEV cleavage was loaded on an anion exchange column (HiTrap Q, GE Healthcare) and CBC eluted by a NaCl gradient as described above. In the text we refer to CBP80ΔNLS and CBP80ΔNLS-CBP20 as CBP80 and CBC, respectively. ARS2^845–871, NELF-E^354–380, and NELF-E^360–380 peptides, with or without FAM label at the N-terminus, were purchased from GenScript.

CBC [2] = biological target: T2, CBC (Homo sapiens, UniProt P52298); test: ITC, binding to CBC without cap analogue; settings: ITC (MicroCal ITC200), 25 °C, 20 mM HEPES, 120 mM NaCl, 2 mM TCEP, pH 7.8, single-site fit; no cap analogue pre-bound; mean ± SD of at least two independent experiments; SD
T2 sequence (P52298 1-156): T1 sequence (P52298 1-156)
T2 sequence (Q09161 20-790 partner): T1 sequence (Q09161 20-790)
Source text: as §1, with “ARS2^845–871, NELF-E^354–380, and NELF-E^360–380 peptides, with or without FAM label at the N-terminus, were purchased from GenScript.” left out

m^7GTP-CBCmut = test: ITC, binding to mutated CBC in the presence of m^7GTP; parameters: species or system human; settings: with m^7GTP; for Kd: 25 °C, pH 7.8, CBCmut = CBP20 Y50A + CBP80 Y461A/R610E/H651A, mean ± SD of 2 experiments
Procedure: For CBC, a triple mutant in CBP80 (Y461A/R610E/H651A) was combined with various mutations in CBP20 (Y50A, Y50A/Y89A, or Y50A/Y89A/D107R).
ITC experiments were performed on a MicroCal ITC200 system (Malvern). Proteins were dialyzed overnight in buffer 20 mM HEPES, 120 mM NaCl, 2 mM tris(2-carboxyethyl)phosphine, pH 7.8. Injections of 1.5 µl protein A were added at an interval of 120–180 s into 205 µl of protein B in the cell, with a stirring speed of 800 rpm at 25 °C. The experimental data were analysed with MicroCal ITC Origin and were fitted to a single-site binding equation.

[3] = tested on: CBC with triple mutants of both CBP20 and CBP80; test: m^7GTP-sepharose pull down with mutated CBC; format: binding, human; settings: CBP80 Y461A/R610E/H651A combined with CBP20 Y50A/Y89A/D107R
Source text: For CBC, a triple mutant in CBP80 (Y461A/R610E/H651A) was combined with various mutations in CBP20 (Y50A, Y50A/Y89A, or Y50A/Y89A/D107R). Binding of ARS2^827–871 to mutated CBC was first tested by m^7GTP-sepharose pull down (Supplementary Fig. 6).

m^7GTP-CBC [4] = biological target: T1, m^7GTP-CBC; test: Fluorescence polarisation with FAM-labelled C-terminal peptides; format: binding; settings: 40 nM FAM peptide, 25 °C, n = 3; for Change of fluorescence polarisation on addition of labelled peptide to m^7GTP-CBC: 20 mM HEPES pH 7.8, 120 mM NaCl, 2 mM TCEP, ex 495 / em 515 nm
Procedure: (§2) Fig. 4 Incompatibility of ARS2-PHAX and NELF-E binding to CBC. a, b Competition on m^7GTP-sepharose. a In separate experiments, different amounts of ARS2^147–871 were added to preformed CBC–NELF–E complex immobilised on m^7GTP-sepharose. […] The fluorophore FAM is represented with a star. Note that different constructs of NELF-E and ARS2 were used in c, d, and e compared to f, g, and h and are therefore represented by slightly different shapes. Error bars show the SD of three experiments
Fluorescence anisotropy binding assays were performed with N-terminal FAM-labelled ARS2^845–871 and […] peptides. 40 nM peptides were titrated with increasing concentrations of proteins in 20 mM HEPES, pH 7.8, 120 mM NaCl, 2 mM tris(2-carboxyethyl)phosphine. For the competition assay CBC–ARS2 and CBC–NELF–E complexes were preformed in the presence of 25 µM m^7GTP using 40 nM ARS2^827–871(FAM) peptide together with 60 nM CBC and 40 nM NELF-E^354–380(FAM) peptide with 1 µM CBC. […] To observe a change in polarisation at reasonable protein concentrations, CBC and NELF-E^244–380 concentrations that saturate half of the FAM-labelled peptides were used to preform the individual complexes. Fluorescence polarisation was measured at 25 °C with a microplate reader (CLARIOstar BMG LABTECH) using an excitation wavelength of 495 nm and emission wavelength of 515 nm. For analysis the polarisation value for the peptide alone was subtracted from the measurements.

CBC [5] = biological target: T2, CBC; test: Size exclusion chromatography (gel filtration) co-elution with CBC, without m^7GTP; format: binding; settings: fractions analysed by SDS-PAGE, absence of m^7GTP
Procedure: (§3) Fig. 1 The interaction of CBC with ARS2 is enhanced in the presence of m^7GTP. a Schematic diagram of the domain structure of ARS2 based on ref. [26]. b Gel filtration chromatogram and Coomassie-stained SDS-PAGE of CBC-ARS2 in the presence and absence of m^7GTP. Purified recombinant CBC and ARS2^147–871 were mixed with (orange) or without (blue) 500 µM m^7GTP and subjected to gel filtration. Their elution profiles were overlaid (left) and single fractions analysed by SDS-PAGE (middle and right). Purified recombinant CBC and C-terminally truncated ARS2^147–845 were mixed with 500 µM m^7GTP and analysed in a similar way (bottom left). c ITC data and curve fit to derive the affinity of different ARS2 constructs for CBC. CBC or m^7GTP-CBC in the sample cell was titrated by ARS2. […] K D values and standard deviation represent the average from at least two independent experiments. d Sequence alignment of the C-terminus of ARS2. Conserved residues are highlighted in red. Figure made with ESPript[54]
(§4) Fig. 2 The interaction of CBC with NELF-E is enhanced in the presence of m^7GTP. a Schematic diagram of the domain structure of NELF-E. b Gel filtration chromatogram and Coomassie-stained SDS-PAGE of CBC-NELF-E in the presence and absence of m^7GTP. […] Their elution profiles were overlaid (left) and single fractions analysed by SDS-PAGE (middle and right). […]

CBC [6] = biological target: T2, CBC; test: Size exclusion chromatography (gel filtration) co-elution with CBC, with m^7GTP; format: binding; settings: gel filtration with 500 µM m^7GTP, fractions analysed by SDS-PAGE
Procedure: as §3, §4

[7] = tested on: CBC–PHAX complex immobilised on m^7GTP-sepharose; test: Displacement pull down on m^7GTP-sepharose, CBC–PHAX; format: binding, human; settings: different amounts added, 1 h at 4 °C, flow through and elution by SDS-PAGE
Procedure: as §2
CBC-NELF-E^1–380 or CBC-PHAX^1–394 were immobilised on m^7GTP-sepharose and incubated for 1 h at 4 °C with different amounts of ARS2^147–871 or NELF-E^1–380 in 20 mM HEPES, pH 7.8, 120 mM NaCl, 2 mM tris(2-carboxyethyl)phosphine, respectively. The flow through, as well as the elution from the beads after extensive washing, was analysed by SDS-PAGE followed by Coomassie staining.

Substance: ARS2 827–871 F871D: ARS2 827–871 construct with F871D mutation (GRGNYDAFRGQGGYPGKPRNRMVRGDPRAIVEYRDLDAPDDVDFD)
Kd (m^7GTP-CBC [1]): 1800 ± 260 nM

Substance: ARS2^845–871(FAM): N-terminal FAM-labelled ARS2 845–871 peptide ({FAM}-YPGKPRNRMVRGDPRAIVEYRDLDAPD; UniProt Q9BXP5 845-871, looked up, fragment) [reference compound]
Change of fluorescence polarisation on addition of labelled peptide to m^7GTP-CBC (m^7GTP-CBC [4]): increase in fluorescence polarisation, indicating binding

Substance: NELF-E^1–380: full-length human NELF-E, expressed in High Five insect cells
Interaction with CBC by SEC (CBC [5]): partially co-eluted | Interaction with CBC by SEC in the presence of m^7GTP (CBC [6]): stabilised the complex | Displacement of PHAX from preformed CBC-PHAX^1–394 bound to m^7GTP-sepharose [7]: resulted in the displacement of PHAX^1–394

Substance: NELF-E^354–380(FAM): N-terminal FAM-labelled NELF-E 354–380 peptide ({FAM}-PKGCHRDKRTQIVYSDDVYKENLVDGF; UniProt P18615 354-380, looked up, fragment) [reference compound]
Change of fluorescence polarisation on addition of labelled peptide to m^7GTP-CBC (m^7GTP-CBC [4]): increase in fluorescence polarisation, indicating binding

Substance: PHAX: full-length human PHAX (phosphorylated adaptor for RNA export), residues 1–394
Kd (m^7GTP-CBC [1]): 130 ± 50 nM

Continued, in another order:

Kd (CBC [2]): 12.2 ± 3.5 µM | Kd (m^7GTP-CBC [1]): 1000 ± 200 nM | Enhancement of the interaction with CBC when m^7GTP is bound (m^7GTP-CBC [1]; ratio of ITC K D without / with m^7GTP): twelve-fold | Kd (m^7GTP-CBCmut): ~12 µM | Kd (m^7GTP-CBCmut; SD): 11.6 ± 1.1 µM | Reduction in affinity of CBCmut compared to wild-type CBC (m^7GTP-CBCmut): twelvefold | Change of polarisation on titration to m^7GTP-CBC-NELF-E^354–380(FAM) (m^7GTP-CBC [4]; competition, 1 µM CBC, 25 µM m^7GTP): decrease in polarisation
Substance: ARS2 827–871: human ARS2 isoform 4 residues 827–871, E. coli expressed construct (APYGAGRGNYDAFRGQGGYPGKPRNRMVRGDPRAIVEYRDLDAPD; isoform 4; UniProt Q9BXP5 827-871, looked up, fragment)
Co-elution with mutated CBC in m^7GTP-sepharose pull down [3]: abolished co-elution

Kd (m^7GTP-CBC [1]): 3300 ± 1100 nM
Substance: DKRTQIVYSDDVYKENLVDGF [NELF-E 360–380]

Kd (m^7GTP-CBC [1]): 1100 ± 160 nM
Substance: RNRMVRGDPRAIVEYRDLDAPDDVDFF [ARS2 845–871]
